Measurements published in US6939707B2, “Isolated nucleic acid molecules which encode GAGE genes and uses thereof” (Ludwig Institute for Cancer Research, priority 1993, dated 2005).

B1: GAGE-4: cDNA highly related to GAGE, from MZ2-MEL.43 library (nucleic acid)
DNA: CGCCAGGGAGCTGTGAGGCAGTGCTGTGTGGTTCCTGCCGTCCGGACTCTTTTTCCTCTACTGAGATTCATCTGTGTGAAATATGAGTTGGCGAGGAAGATCGACCTATTATTGGCCTAGACCAAGGCGCTATGTACAGCCTCCTGAAATGATTGGGCCTATGCGGCCCGAGCAGTTCAGTGATGAAGTGGAACCAGCAACACCTGAAGAAGGGGAACCAGCAACTCAACGTCAGGATCCTGCAGCTGCTCAGGAGGGAGAGGATGAGGGAGCATCTGCAGGTCAAGGGCCGAAGCCTGAAGCTGATAGCCAGGAACAGGGTCACCCACAGACTGGGTGTGAGTGTGAAGATGGTCCTGATGGGCAGGAGATGGACCCGCCAAATCCAGAGGAGGTGAAAACGCCTGAAGAAGGTGAAAAGCAATCACAGTGTTAAAAGAAGGCACGTTGAAATGATGCAGGCTGCTCCTATGTTGGAAATTTGTTCATTAAAATTCTCCCAATAAAGCTTTACAGCCTTCTGCAAAAAAAAAAAAAAAA
B2: GAGE-5: cDNA highly related to GAGE, from MZ2-MEL.43 library (nucleic acid)
DNA: AGCTGTGAGGCAGTGCTGTGTGGTTCCTGCCGTCCGGACTCTTTTTCCTCTACTGAGATTCATCTGTGTGAAATATGAGTTGGCGAGGAAGATCGACCTATTATTGGCCTAGACCAAGGCGCTATGTACAGCCTCCTGAAGTGATTGGGCCTATGCGGCCCGAGCAGTTCAGTGATGAAGTGGAACCAGCAACACCTGAAGAAGGGGAACCAGCAACTCAACGTCAGGATCCTGCAGCTGCTCAGGAGGGAGAGGATGAGGGAGCATCTGCAGGTCAAGGGCCGAAGCCTGAAGCTGATAGCCAGGAACAGGGTCACCCACAGACTGGGTGTGAGTGTGAAGATGGTCCTGATGGGCAGGAGATGGACCCGCCAAATCCAGAGGAGGTGAAAACGCCTGAAGAAGGTGAAAAGCAATCACAGTGTTAAAAGAAGGCACGTTGAAATGATGCAGGCTGCTCCTATGTTGGAAATTTGTTCATTAAAATTCTCCCAATAAAGCTTTACAGCCTTCTGCAAAGAAAAAAAAAAAA
B3: GAGE-3: cDNA highly related to GAGE, from MZ2-MEL.43 library (nucleic acid)
DNA: CTCATATTTCACACAGATGAGTTGGCGAGGAAGATCGACCTATTATTGGTCTAGGCCAATAATAGGTCGATCTTCCTCGCCAACTCATATTTCACACAGATGAATCTCAGTAGAGGAAAATCGACCTATTATTGGCCTAGACCAAGGCGCTATGTACAGCCTCCTGAAGTGATTGGGCCTATGCGGCCCGAGCAGTTCAGTGATGAAGTGGAACCAGCAACACCTGAAGAAGGGGAACCAGCAACTCAACGTCAGGATCCTGCAGCTGCTCAGGAGGGAGAGGATGAGGGAGCATCTGCAGGTCAAGGGCCGAAGCCTGAAGCTGATAGCCAGGAACAGGGTCACCCACAGACTGGGTGTGAGTGTGAAGATGGTCCTGATGGGCAGGAGATGGACCCGCCAAATCCAGAGGAGGTGAAAACGCCTGAAGAAGGTGAAAAGCAATCACAGTGTTAAAAGAAGGCACGTTGAAATGATGCAGGCTGCTCCTATGTTGGAAATTTGTTCATTAAAATTCTCCCAATAAAGCTTTACAGCCTTCTGCAAAGAAAAAAAAAAAA

Experiments:
CTL 76/6 = test: TNF release / recognition by CTL 76/6 of COS cells cotransfected with GAGE cDNA and HLA-Cw6 cDNA; format: cell-based, human; settings: COS cells transfected with cDNA together with HLA-Cw6 cDNA (FIG. 2, FIG. 6)
Protocol: Following preparation of the library described in Example 3, the cDNA was transfected into eukaryotic cells. The transfections, described herein, were carried out in duplicate. Samples of COS-7 cells were seeded, at 15,000 cells/well into tissue culture flat bottom microwells, in Dulbecco's modified Eagles Medium (“DMEM”) supplemented with 10% fetal calf serum. The cells were incubated overnight at 37° C., medium was removed and then replaced by 50 μl/well of DMEM medium containing 10% Nu serum, 400 μg/ml DEAE-dextran, and 100 μM chloroquine, plus 100 ng of the plasmids. […] As a result, cDNA for each of the HLA molecules which could present the antigen (A1, B37, Cw6) was used, separately, to cotransfect the cells. Specifically, one of 28 ng of the gene encoding HLA-A1 cloned into pCD-SRα, 50 ng of cDNA for HLA-B37 in pcDNA 1/Amp, or 75 ng of cDNA for HLA-Cw6 in pcDNAI-Amp, using the same protocols as were used for transfeclion with the library.
Transfection was carried out in duplicate wells, but only 500 pools of the HLA-Cw6 transfectants could be tested in single wells. Following four hours of incubation at 37° C., the medium was removed, and replaced by 50 μl of PBS containing 10% DMSO. This medium was removed after two minutes and replaced by 200 μl of DMEM supplemented with 10% FCS.
(§1) Following this change in medium, COS cells were incubated for 24-48 hours at 37° C. Medium was then discarded, and 1000-3000 cells of CTL clone 76/6 were added, in 100 μl of Iscove's medium containing 10% pooled human serum supplemented with 20-30 U/ml of recombinant IL-2. Supernatant was removed after 24 hours, and TNF content was determined in an assay on WEHI cells, as described by Traversari et al., Immunogenetics 35: 145-152 (1992), the disclosure of which is incorporated by reference.
The bacteria of the selected pool were cloned, and 600 clones were tested. Plasmid DNA was extracted therefrom, transfected into a new sample of COS cells in the same manner as described supra, and the cells were again tested for stimulation of CTL clone 76/6. Ninety-four positive clones were found. One of these, referred to as cDNA clone 2D6, was tested further. In a comparative test COS cells were transfected with cDNA clone 2D6 and the HLA-Cw6 cDNA, HLA-Cw6 cDNA alone, or cDNA 2D6 alone. Control cell lines MZ2-MEL F and MZ2-MEL F^+ were also used. TNF release into CTL supernatant was measured by testing it on WEHI cells, as referred to supra. The number of surviving WEHI cells was measured by optical density after incubation of the cells with MTT.
To assess whether the change at position 2 affected the antigenicity of the peptide, cDNA of the 6 GAGE cDNAs were individually transfected into COS cells together with the cDNA of HLA-Cw6, and the transfectants were tested for recognition by CTL 76/6 as described, supra. Only GAGE-1 and GAGE-2 transfected cells were recognized, showing that the modified peptide encoded by GAGE-3, 4, 5 and 6 was not antigenic in the context of this experiment.

CTL 22/23 = test: TNF production by CTL 22/23 on COS-7 cells cotransfected with HLA-A29 and GAGE cDNA; format: cell-based, human; settings: COS-7 cells transfected with HLA-A29 and the cDNA, 24 hours (FIG. 7)
Protocol: as §1
Once positive HLA-A29 clones were isolated, these were transfected into COS-7 using the DEAE-dextran chloroquine method out supra. In brief, 1.5×10^4 COS-7 cells were treated with 50 ng of plasmid pcDNA-I/Amp containing HLA-A29, and 100 ng of cDNA containing cDNA for one of the GAGE sequences mentioned supra, or one of the prior art MAGE or BAGE sequences in plasmid pcDNAα-I/Amp or pcDSR-α, respectively. The transfectants were then incubated for 24 hours at 37° C.
The transfectants were then tested for their ability to stimulate TNF production by CTLs, using the assay explained at the end of example, 4, supra.

Molecule	recognition by CTL 76/6 (TNF release) (CTL 76/6)	stimulation of TNF production by CTL clone 22/23 (CTL 22/23)
B1	not antigenic	high levels of TNF production
B2	not antigenic	high levels of TNF production
B3	not antigenic	high levels of TNF production
